{
  "source": "patent US20210063414A1",
  "about": "“METHODS FOR PREVENTING AND/OR TREATING BONE LOSS CONDITIONS BY MODULATING IRISIN” (Dana-Farber Cancer Institute, Inc., priority 2018, published 2021)",
  "assay_in_all_cases": "Crosslinking/co-immunoprecipitation/mass spectrometry (TMT quantitative proteomics) to identify irisin receptors",
  "type_in_all_cases": "binding",
  "key": {"[1]": {"molecular_target": "T1, MLO-Y4 cell surface proteins (Mus musculus, UniProt Q6ZPE2)", "T1 construct": "endogenous in cells; host or cells: MLO-Y4", "T1 sequence (Q6ZPE2 whole entry, the tested form may be a part)": "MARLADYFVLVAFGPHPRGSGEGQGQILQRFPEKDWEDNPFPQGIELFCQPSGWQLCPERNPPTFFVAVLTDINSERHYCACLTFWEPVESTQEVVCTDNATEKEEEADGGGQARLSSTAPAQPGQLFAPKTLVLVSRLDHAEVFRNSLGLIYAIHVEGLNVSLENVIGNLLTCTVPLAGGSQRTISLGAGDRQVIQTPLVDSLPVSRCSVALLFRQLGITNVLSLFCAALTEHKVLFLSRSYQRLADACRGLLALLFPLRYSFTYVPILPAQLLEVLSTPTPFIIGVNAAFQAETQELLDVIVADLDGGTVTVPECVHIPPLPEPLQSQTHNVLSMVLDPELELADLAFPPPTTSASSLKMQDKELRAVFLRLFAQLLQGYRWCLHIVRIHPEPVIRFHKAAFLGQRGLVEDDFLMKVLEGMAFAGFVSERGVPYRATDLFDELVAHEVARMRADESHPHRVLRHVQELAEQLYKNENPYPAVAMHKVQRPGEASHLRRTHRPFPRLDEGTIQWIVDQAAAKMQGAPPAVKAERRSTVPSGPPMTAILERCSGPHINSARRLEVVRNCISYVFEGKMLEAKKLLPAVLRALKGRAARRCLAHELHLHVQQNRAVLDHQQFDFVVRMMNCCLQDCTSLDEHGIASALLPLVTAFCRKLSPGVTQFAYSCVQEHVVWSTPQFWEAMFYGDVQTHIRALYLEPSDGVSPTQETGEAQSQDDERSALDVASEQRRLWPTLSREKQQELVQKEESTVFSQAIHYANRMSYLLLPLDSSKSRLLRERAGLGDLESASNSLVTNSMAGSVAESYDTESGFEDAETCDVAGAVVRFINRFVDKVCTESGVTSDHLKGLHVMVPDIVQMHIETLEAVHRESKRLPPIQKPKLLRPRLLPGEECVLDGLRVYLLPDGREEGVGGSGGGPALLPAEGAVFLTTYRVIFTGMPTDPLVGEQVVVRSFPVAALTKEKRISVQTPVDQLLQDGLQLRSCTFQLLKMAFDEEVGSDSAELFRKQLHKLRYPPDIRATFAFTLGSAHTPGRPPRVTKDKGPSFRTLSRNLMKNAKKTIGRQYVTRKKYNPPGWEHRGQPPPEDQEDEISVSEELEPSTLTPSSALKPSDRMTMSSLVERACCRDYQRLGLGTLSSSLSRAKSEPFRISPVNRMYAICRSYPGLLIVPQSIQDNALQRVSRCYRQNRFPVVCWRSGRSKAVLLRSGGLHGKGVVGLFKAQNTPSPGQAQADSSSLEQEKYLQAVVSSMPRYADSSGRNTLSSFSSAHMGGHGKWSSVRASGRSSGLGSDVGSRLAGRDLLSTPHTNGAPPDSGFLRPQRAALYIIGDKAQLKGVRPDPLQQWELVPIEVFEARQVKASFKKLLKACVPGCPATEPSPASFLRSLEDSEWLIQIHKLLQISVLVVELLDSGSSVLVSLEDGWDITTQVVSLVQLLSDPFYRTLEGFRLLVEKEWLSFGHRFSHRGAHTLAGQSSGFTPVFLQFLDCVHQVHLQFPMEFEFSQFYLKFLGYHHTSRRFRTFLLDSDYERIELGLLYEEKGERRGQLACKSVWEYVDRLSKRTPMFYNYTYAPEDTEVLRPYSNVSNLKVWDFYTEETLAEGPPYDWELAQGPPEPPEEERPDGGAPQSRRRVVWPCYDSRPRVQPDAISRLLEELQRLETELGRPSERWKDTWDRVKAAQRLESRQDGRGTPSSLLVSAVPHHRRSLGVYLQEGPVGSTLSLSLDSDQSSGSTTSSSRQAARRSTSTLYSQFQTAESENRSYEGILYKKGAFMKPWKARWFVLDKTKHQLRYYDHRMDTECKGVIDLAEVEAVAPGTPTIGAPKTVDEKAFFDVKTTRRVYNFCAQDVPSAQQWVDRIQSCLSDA", "conditions": "co-precipitated protein Sbf1 (MTMR5_MOUSE)", "in_short": "(§1)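 Relative protein abundance came from 6-plex TMT MS3 quantitation on an Orbitrap Fusion Lumos, after in-gel trypsin digestion of Coomassie-stained SDS-PAGE lanes. Input was a Ni-NTA pulldown (250 mM imidazole elution) of lysates from murine MLO-Y4 cells. These cells were treated on ice with His-tagged irisin or adipsin (10 nM, 20 min) in serum-free medium, then crosslinked with 1.5 mM DTSSP for 30 min.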"}, "[2]": {"molecular_target": "T2, MLO-Y4 cell surface proteins (Mus musculus, UniProt Q9D051)", "T2 construct": "endogenous in cells; host or cells: MLO-Y4", "T2 sequence (Q9D051 31-359)": "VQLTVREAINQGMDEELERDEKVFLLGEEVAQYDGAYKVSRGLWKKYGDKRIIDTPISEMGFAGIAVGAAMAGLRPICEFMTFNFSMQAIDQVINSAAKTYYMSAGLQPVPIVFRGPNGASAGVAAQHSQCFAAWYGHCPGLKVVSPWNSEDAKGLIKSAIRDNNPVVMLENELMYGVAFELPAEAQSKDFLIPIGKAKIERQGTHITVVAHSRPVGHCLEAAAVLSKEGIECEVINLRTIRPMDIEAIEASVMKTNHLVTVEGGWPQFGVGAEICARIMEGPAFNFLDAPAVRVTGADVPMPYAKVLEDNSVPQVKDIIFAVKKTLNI", "conditions": "co-precipitated protein Pdhb (ODPB_MOUSE)", "in_short": "as §1"}, "[3]": {"molecular_target": "T3, MLO-Y4 cell surface proteins (Mus musculus, UniProt P63038)", "T3 construct": "endogenous in cells; host or cells: MLO-Y4", "T3 sequence (P63038 27-573)": "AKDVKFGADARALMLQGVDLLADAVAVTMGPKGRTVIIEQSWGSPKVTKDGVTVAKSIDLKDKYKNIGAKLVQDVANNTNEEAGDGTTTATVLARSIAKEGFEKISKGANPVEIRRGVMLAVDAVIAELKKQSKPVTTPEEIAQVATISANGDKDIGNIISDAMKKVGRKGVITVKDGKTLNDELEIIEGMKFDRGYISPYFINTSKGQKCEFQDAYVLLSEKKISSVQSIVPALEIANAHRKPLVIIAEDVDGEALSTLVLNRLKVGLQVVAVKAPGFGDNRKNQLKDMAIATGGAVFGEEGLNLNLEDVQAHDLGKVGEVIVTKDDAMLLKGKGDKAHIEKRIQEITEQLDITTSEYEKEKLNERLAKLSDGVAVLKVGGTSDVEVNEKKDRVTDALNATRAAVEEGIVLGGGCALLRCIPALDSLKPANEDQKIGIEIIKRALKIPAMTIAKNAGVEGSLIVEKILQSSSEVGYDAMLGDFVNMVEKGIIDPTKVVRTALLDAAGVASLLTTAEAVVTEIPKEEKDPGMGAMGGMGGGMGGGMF", "conditions": "co-precipitated protein Hspd1 (CH60_MOUSE)", "in_short": "as §1"}, "[4]": {"molecular_target": "T4, MLO-Y4 cell surface proteins (Mus musculus, UniProt Q8VCI5)", "T4 construct": "endogenous in cells; host or cells: MLO-Y4", "T4 sequence (Q8VCI5 1-299)": "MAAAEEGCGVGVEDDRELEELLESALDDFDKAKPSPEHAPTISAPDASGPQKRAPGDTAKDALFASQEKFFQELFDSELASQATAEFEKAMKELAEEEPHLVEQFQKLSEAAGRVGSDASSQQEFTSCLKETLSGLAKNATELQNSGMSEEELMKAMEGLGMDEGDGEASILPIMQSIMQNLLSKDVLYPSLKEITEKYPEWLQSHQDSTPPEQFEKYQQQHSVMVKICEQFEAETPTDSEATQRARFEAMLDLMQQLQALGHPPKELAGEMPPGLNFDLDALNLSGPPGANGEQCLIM", "conditions": "co-precipitated protein Pex19 (PEX19_MOUSE)", "in_short": "as §1"}, "[5]": {"molecular_target": "T5, MLO-Y4 cell surface proteins (Mus musculus, UniProt Q9Z138)", "T5 construct": "endogenous in cells; host or cells: MLO-Y4", "T5 sequence (Q9Z138 34-944)": "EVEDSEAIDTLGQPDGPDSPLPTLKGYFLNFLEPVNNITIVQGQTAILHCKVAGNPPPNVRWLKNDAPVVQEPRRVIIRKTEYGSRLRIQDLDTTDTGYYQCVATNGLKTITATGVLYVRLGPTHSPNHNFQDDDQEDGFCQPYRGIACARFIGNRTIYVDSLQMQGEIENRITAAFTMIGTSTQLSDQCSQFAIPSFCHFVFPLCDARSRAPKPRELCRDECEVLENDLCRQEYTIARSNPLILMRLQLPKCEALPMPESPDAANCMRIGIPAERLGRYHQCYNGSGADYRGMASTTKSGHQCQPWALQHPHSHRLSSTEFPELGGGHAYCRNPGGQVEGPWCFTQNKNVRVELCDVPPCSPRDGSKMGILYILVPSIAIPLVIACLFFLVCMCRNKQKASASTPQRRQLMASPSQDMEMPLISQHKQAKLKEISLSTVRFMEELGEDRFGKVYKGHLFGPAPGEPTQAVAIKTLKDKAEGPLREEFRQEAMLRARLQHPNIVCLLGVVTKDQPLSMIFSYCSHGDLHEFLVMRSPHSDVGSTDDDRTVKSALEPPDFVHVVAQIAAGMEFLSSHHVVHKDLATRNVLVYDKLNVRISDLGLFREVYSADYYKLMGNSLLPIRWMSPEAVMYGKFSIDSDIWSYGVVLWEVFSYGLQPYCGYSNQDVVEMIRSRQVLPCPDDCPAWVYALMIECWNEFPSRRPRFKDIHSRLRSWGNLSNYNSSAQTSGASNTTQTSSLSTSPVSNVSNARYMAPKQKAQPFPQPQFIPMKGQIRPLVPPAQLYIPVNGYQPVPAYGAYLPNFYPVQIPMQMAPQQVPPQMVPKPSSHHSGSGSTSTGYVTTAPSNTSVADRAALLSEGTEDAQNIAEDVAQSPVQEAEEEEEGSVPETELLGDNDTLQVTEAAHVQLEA", "conditions": "co-precipitated protein Ror2 (ROR2_MOUSE)", "in_short": "as §1"}, "[6]": {"molecular_target": "T6, MLO-Y4 cell surface proteins (Mus musculus, UniProt Q99LC5)", "T6 construct": "endogenous in cells; host or cells: MLO-Y4", "T6 sequence (Q99LC5 20-333)": "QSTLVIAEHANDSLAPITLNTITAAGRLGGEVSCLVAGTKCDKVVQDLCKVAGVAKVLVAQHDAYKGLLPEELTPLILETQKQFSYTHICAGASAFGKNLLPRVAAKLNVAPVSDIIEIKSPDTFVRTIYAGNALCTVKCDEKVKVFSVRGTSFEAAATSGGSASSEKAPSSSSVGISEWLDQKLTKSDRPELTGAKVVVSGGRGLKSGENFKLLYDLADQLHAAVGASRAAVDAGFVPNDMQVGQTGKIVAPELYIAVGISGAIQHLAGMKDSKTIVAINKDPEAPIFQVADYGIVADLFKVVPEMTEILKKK", "conditions": "co-precipitated protein Etfa (ETFA_MOUSE)", "in_short": "as §1"}},
  "data": [
    {"substance": "adipsin", "values": [
      {"measurement": "TMT signal-to-noise ratio", "setting": "[1]", "value": 71.1304},
      {"measurement": "TMT signal-to-noise ratio", "setting": "[2]", "value": 365.712},
      {"measurement": "TMT signal-to-noise ratio", "setting": "[3]", "value": 4263.9},
      {"measurement": "TMT signal-to-noise ratio", "setting": "[4]", "value": 60.4801},
      {"measurement": "TMT signal-to-noise ratio", "setting": "[5]", "value": 67.6684},
      {"measurement": "TMT signal-to-noise ratio", "setting": "[6]", "value": 80.1458}
    ]}
  ]
}
